Measured values from US20240182562A1 (ORICELL THERAPEUTICS, published 2024).

T1: Cynomolgus monkey CLDN18.2 (cynomolgus monkey)
T1 chain: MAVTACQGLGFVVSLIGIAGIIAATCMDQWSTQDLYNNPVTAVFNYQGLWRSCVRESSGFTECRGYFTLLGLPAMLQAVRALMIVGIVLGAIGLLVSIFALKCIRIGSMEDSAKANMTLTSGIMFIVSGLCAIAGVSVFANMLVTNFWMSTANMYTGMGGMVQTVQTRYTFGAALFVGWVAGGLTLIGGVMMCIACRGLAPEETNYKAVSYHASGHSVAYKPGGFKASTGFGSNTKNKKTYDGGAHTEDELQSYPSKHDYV

T2: Mouse CLDN18.2 (mouse, UniProt P56857 10-264)
T2 chain: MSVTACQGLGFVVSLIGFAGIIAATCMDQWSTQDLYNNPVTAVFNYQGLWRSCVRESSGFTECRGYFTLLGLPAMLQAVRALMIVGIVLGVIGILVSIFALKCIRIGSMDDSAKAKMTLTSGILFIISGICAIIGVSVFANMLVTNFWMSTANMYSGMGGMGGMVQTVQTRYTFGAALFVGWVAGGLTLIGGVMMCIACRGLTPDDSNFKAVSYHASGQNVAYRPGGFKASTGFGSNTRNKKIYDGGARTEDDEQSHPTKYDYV


How the values were obtained:
Human CLDN18.2 [1] = target: T3, Human CLDN18.2 (human, UniProt P56856-2 1-261); assay: FACS, hybridoma culture supernatant on CHO-human CLDN18.2 cells
T3 construct: whole, on cells; also called human Claudin18.2; hCLDN18.2
Method: (§1) The cells were co-incubated at 4° C. for 1 hour and the plates were washed once with the flow cytometry buffer. A corresponding secondary antibody was added at 30 ul/well and co-incubated at 4° C. for 30 minutes and the plates were then washed with the flow cytometry buffer twice. After the cells were shaken loose, the FACS buffer was added at 25 μl/well, and FACS was then performed on the iQue Screener flow cytometer (purchased from IntelliCyt Company). The mother clones that were positive for CLDN18.2 in the primary sorting were picked for expansion culture in 24-well cell culture plates. Three days later, the cell supernatant was taken for re-sorting by FACS. […] The positive hybridoma mother clones were monocloned using a gradient dilution method. After two to three rounds of subcloning and FACS, a monoclonal hybridoma cell secreting a CLDN18.2-specific antibody was obtained.

Human CLDN18.2 [2] = target: T3, Human CLDN18.2; assay: FACS, hybridoma culture supernatant on 293T-human CLDN18.2 cells
Method: as §1

[3] = target: T1, Cynomolgus monkey CLDN18.2; assay: FACS on 293T-cynomolgus monkey CLDN18.2 cells (FIG. 4)
Method: (§2) The species cross-binding activity of the above antigen-binding proteins to mouse CLDN18.2 and cynomolgus monkey CLDN18.2 were tested through FACS on the CytoFLEX flow cytometer (purchased from BECKMAN COULTER Company) using PBS containing 0.1% BSA as a buffer. […] The treated cells were then resuspended in a flow cytometry buffer to the cell density of 1×10⁶ cells/ml, and then added into V-bottom 96-well plates at 30 μl/well. Primary antibodies with initial concentration of 10 ug/ml were gradient diluted with the flow cytometry buffer at a three-fold ratio to form 6 gradients. […] After inoculation at 4° C. for one hour, the plates were washed once with the flow cytometry buffer. The secondary antibody (abcam, Cat #ab98593) was added at 30 μl/well. After incubation at 4° C. for 30 minutes, the plates were washed twice with the flow cytometry buffer and the cells were shaken dispersedly. The flow cytometry buffer was added at 30 μl/well, and then the cells were tested on the flow cytometer. Original data were entered into the software GraphPad8.0 for graphing and calculation.

Mouse CLDN18.2 = target: T2, Mouse CLDN18.2; assay: FACS on 293T-mouse CLDN18.2 cells (FIG. 4)
Method: as §2

Human CLDN18.2 [4] = target: T3, Human CLDN18.2; assay: FACS on SP2/0-hCLDN18.2 cells (FIG. 12)
Method: After counting, the SP2/0-hCLDN18.2 cell was resuspended in a flow cytometry buffer, adjusted to the density of 1×10⁶ cells/ml, and then added into V-bottom 96-well plates at 30 μl/well. Primary antibodies with initial working concentration of 80 μg/ml were added at 30 μl/well, and then gradient diluted with the flow cytometry buffer at a four-fold ratio to form 7 gradients. A PBS negative control was set up for each antibody. After inoculation at 4° C. for one hour, the plates were washed once with the flow cytometry buffer. The secondary antibody, i.e., goat F(ab′)2 anti-human IgG-Fc (DyLight® 650) (abcam, Cat #ab98593), was added at 30 μl/well. After inoculation at 4° C. for 30 minutes, the plates were washed twice with the flow cytometry buffer and the cells were shaken dispersedly. The flow cytometry buffer was added at 25 μl/well, and then the cells were ready for FACS on the flow cytometer. In the meanwhile, after counting, the SP2/0-hCLDN18.1 cell was loaded in plates. Primary antibodies with initial working concentration of 10 μg/ml were gradient diluted at a three-fold ratio to form 5 concentration gradients in total. The secondary antibody used was goat F(ab′)2 anti-human IgG-Fc (DyLight® 650) (abcam, Cat #ab98593). Original data were entered into the software GraphPad8.0 for graphing and calculation.

Binder | Average fluorescence intensity (Human CLDN18.2 [1]) | Average fluorescence intensity (Human CLDN18.2 [2]) | binding result [3] | binding result (Mouse CLDN18.2) | binding result (Human CLDN18.2 [4])
7E3 (hybridoma clone, murine CLDN18.2 antigen-binding protein) (antibody, V domains shown, Murine monoclonal antibody tested as hybridoma culture supernatant) VH: EVQLQQSGPELVKPGASVKMSCKASGYTFTNYIIHWVKQKPGQGLEWIGYINPYTDGPKYNEKFKGRATLTSDKSSSTAYMEFSSLTSEDSAVYYCARLNRGNAMDYWGQGTSVTVSS VL: DIVMTQSPSSLTVTVREKVTLSCKSSQSLLNSGNQKNYLTWYQQKPGQPPKLLIYWASTRESGVPDRFTGSGSGTDFTLTISSVQAEDLAVYYCQNVYIYPFTFGAGTKLELKR | 84800 | 48200 |  |  | 
c14E12 (antibody, V domains shown) VH: EVQLQESGPELVKPGASVKMSCKASGYTFTNYIIHWVKQKPGQGLEWIGYINPYTDGPKYNEKFKGRATLTSDKSSSTAYMEFSSLTSEDSAVYYCARLNRGNAMDYWGQGTSVTVSS VL: DIVMTQSPSSLSVSAGEKVTMSCKSSQSLLNNGNQKNYLAWYQQKPGQPPKLLIYGASTRESGVPDRFTGSGSGTDFALTISSVQAEDLAVYYCQNDLYYPFTFGSGTKLDIKR |  |  | binds | binds | 
14E12 (hybridoma clone, murine CLDN18.2 antigen-binding protein) (antibody, V domains shown, Murine monoclonal antibody tested as hybridoma culture supernatant) VH: EVQLQESGPELVKPGASVKMSCKASGYTFTNYIIHWVKQKPGQGLEWIGYINPYTDGPKYNEKFKGRATLTSDKSSSTAYMEFSSLTSEDSAVYYCARLNRGNAMDYWGQGTSVTVSS VL: DIVMTQSPSSLSVSAGEKVTMSCKSSQSLLNNGNQKNYLAWYQQKPGQPPKLLIYGASTRESGVPDRFTGSGSGTDFALTISSVQAEDLAVYYCQNDLYYPFTFGSGTKLDIKR | 27600 | 16600 |  |  | 
3A6 (hybridoma clone, murine CLDN18.2 antigen-binding protein) (antibody, V domains shown, Murine monoclonal antibody tested as hybridoma culture supernatant) VH: EVQLVESGGDLVQPGGSLKLSCAASGFTLSRYGMSWVRQTPDKRLEWVSTIISGGINTYYSDSVKGRFSISRDNARNTLYLQMSSLKSEDTAMYYCGRLYYGNAMDYWGQGTAVTVSS VL: DIVMTQSPSSLTVTAGEKVTMSCKSSQSLLNSGNQKNYLTWYQQKPGQPPKLLIYWASTRESGVPDRFTGSGSGTHFTLTISSVQAEDLAVYYCQNDYSYPLTFGAGTKLELKR | 215000 | 101000 |  |  | 
c7E3 (antibody, V domains shown) VH: EVQLQQSGPELVKPGASVKMSCKASGYTFTNYIIHWVKQKPGQGLEWIGYINPYTDGPKYNEKFKGRATLTSDKSSSTAYMEFSSLTSEDSAVYYCARLNRGNAMDYWGQGTSVTVSS VL: DIVMTQSPSSLTVTVREKVTLSCKSSQSLLNSGNQKNYLTWYQQKPGQPPKLLIYWASTRESGVPDRFTGSGSGTDFTLTISSVQAEDLAVYYCQNVYIYPFTFGAGTKLELKR |  |  | binds | binds | 
17B10 (hybridoma clone, murine CLDN18.2 antigen-binding protein) (antibody, V domains shown, Murine monoclonal antibody tested as hybridoma culture supernatant) VH: EVQLQESGPELVKPGASVKMSCKASGYTFTNYIIHWVKQKPGQGLEWIGYINPYTDGPKYNEKFKGRATLTSDKSSSTAYMEFSSLTSEDSAVYYCARLNRGNAMDYWGQGTSVTVSS VL: DIVMTQSPSSLTVTAGEKVTMNCKSSQSLLNSGNQKNYLTWYQQKPGQPPKLLIYWASTRESGVPDRFTGSGSGTDFTLTISSVQAEDLAVYYCQNDYSFPFTFGSGTKLEIKR | 52100 | 30600 |  |  | 
5E6 (hybridoma clone, murine CLDN18.2 antigen-binding protein) (antibody, V domains shown, Murine monoclonal antibody tested as hybridoma culture supernatant) VH: EVQLQQSGPELVKPGASVKMSCKASGYTFTNYVMNWVKQKPGQGLEWIGYINPYNDGTKYNERFKGKATLTSDKSSSTAFMEVSSLTSEDSAVYYCARLYRGNAMDYWGQGTSVTVSS VL: DIVMTQSPSSLTVTVREKVTLSCKSSQSLLNSGNQKNYLTWYQQKPGQPPKLLIYWASTRESGVPDRFTGSGSGTDFTLTISSVQAEDLAVYYCQNVYIYPFTFGAGTKLELKR | 293000 | 108000 |  |  | 

Other lines, results leading:

Average fluorescence intensity (Human CLDN18.2 [1]) | Average fluorescence intensity (Human CLDN18.2 [2]) | binding result [3] | binding result (Mouse CLDN18.2) | binding result (Human CLDN18.2 [4]) | Binder
 |  | binds | binds |  | c3A6 (antibody, V domains shown) VH: EVQLVESGGDLVQPGGSLKLSCAASGFTLSRYGMSWVRQTPDKRLEWVSTIISGGINTYYSDSVKGRFSISRDNARNTLYLQMSSLKSEDTAMYYCGRLYYGNAMDYWGQGTAVTVSS VL: DIVMTQSPSSLTVTAGEKVTMSCKSSQSLLNSGNQKNYLTWYQQKPGQPPKLLIYWASTRESGVPDRFTGSGSGTHFTLTISSVQAEDLAVYYCQNDYSYPLTFGAGTKLELKR
 |  | binds | binds |  | c5E6 (antibody, V domains shown) VH: EVQLQQSGPELVKPGASVKMSCKASGYTFTNYVMNWVKQKPGQGLEWIGYINPYNDGTKYNERFKGKATLTSDKSSSTAFMEVSSLTSEDSAVYYCARLYRGNAMDYWGQGTSVTVSS VL: DIVMTQSPSSLTVTVREKVTLSCKSSQSLLNSGNQKNYLTWYQQKPGQPPKLLIYWASTRESGVPDRFTGSGSGTDFTLTISSVQAEDLAVYYCQNVYIYPFTFGAGTKLELKR
 |  | binds | binds |  | c17B10 (antibody, V domains shown) VH: EVQLQESGPELVKPGASVKMSCKASGYTFTNYIIHWVKQKPGQGLEWIGYINPYTDGPKYNEKFKGRATLTSDKSSSTAYMEFSSLTSEDSAVYYCARLNRGNAMDYWGQGTSVTVSS VL: DIVMTQSPSSLTVTAGEKVTMNCKSSQSLLNSGNQKNYLTWYQQKPGQPPKLLIYWASTRESGVPDRFTGSGSGTDFTLTISSVQAEDLAVYYCQNDYSFPFTFGSGTKLEIKR
 |  |  |  | binds | Standard antibody (antibody, V domains shown, detected with anti-human IgG-Fc) VH: QVQLQESGPGLIKPSQTLSLTCTVSGGSISSGYNWHWIRQPPGKGLEWIGYIHYTGSTNYNPALRSRVTISVDTSKNQFSLKLSSVTAADTAIYYCARIYNGNSFPYWGQGTTVTVSS VL: DIVMTQSPDSLAVSLGERATINCKSSQSLFNSGNQKNYLTWYQQKPGQPPKLLIYWASTRESGVPDRFSGSGSGTDFTLTISSLQAEDVAVYYCQNAYSFPYTFGGGTKLEIKR
